Source: patent publication US20210238302A1, “HIGH AFFINITY MONOCLONAL ANTIBODIES (MABS) AGAINST CELL SURFACE EXPRESSED HUMAN CARBONIC ANHYDRASE IX (HCA-IX), AND USES THEREOF” (NATIONAL RESEARCH COUNCIL OF CANADA, priority 2018, published 2021)
Where “and” joins values, the source holds several entries; their conditions need not be identical. Equal values may be shown once. Entries after “also recorded” stand apart in the source; their conditions may differ. Read-outs that look alike come from different tables or passages of the source.

Legend:
[1] = target: rhCA-IV (Homo sapiens, UniProt P22748); assay: Cross-reactivity determination by SPR; type: binding
rhCA-IV, sequence (P22748 19-284): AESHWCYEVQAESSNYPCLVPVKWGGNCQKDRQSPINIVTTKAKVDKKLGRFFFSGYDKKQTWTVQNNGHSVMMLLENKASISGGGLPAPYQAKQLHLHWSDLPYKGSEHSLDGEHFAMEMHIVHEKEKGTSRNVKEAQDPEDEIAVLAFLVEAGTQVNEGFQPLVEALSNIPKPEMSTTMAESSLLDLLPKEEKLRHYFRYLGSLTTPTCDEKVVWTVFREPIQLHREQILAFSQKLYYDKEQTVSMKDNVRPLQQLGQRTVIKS
Excerpt: (§1) hCA-IX is one of several hCAs that have been identified to date (see FIG. 1). […] In contrast to hCA-IX the expression pattern of hCA-XII is much more widespread and not as cancer specific as hCA-IX.

[2] = target: rhCA-XIV (Homo sapiens, UniProt Q9ULX7); assay: Cross-reactivity determination by SPR; type: binding
rhCA-XIV, sequence (Q9ULX7 16-337): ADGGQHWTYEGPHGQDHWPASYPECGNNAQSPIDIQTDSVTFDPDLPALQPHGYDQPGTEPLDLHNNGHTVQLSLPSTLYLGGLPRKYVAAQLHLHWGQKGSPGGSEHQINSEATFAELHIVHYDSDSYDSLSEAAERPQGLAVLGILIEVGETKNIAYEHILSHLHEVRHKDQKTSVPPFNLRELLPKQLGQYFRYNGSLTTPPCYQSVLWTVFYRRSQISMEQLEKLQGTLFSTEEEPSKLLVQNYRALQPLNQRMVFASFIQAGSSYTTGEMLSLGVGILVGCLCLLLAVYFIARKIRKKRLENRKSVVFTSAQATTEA
Excerpt: as §1

[3] = target: rhCA-XII (Homo sapiens, UniProt O43570); assay: Cross-reactivity determination by SPR; type: binding
rhCA-XII, sequence (O43570 25-354): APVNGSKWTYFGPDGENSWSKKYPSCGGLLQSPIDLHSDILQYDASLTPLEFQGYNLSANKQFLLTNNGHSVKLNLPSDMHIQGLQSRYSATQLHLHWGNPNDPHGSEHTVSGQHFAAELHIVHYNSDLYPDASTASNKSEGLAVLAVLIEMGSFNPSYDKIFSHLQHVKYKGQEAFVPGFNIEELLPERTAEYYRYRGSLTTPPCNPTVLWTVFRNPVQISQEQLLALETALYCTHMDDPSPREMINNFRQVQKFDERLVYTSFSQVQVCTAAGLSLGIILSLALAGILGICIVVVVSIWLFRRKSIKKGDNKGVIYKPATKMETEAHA
Excerpt: as §1

[4] = target: T1, low hCA-IX expressing SK-RC-59 cells (Homo sapiens, UniProt Q16790); assay: Flow cytometry binding, SK-RC-59 cells; type: cell-based; details: SK-RC-59 (low hCA-IX)
T1 construct: the non-transfected human renal tumor SK-RC-59 and SK-RC-52 cell lines; endogenous in cells; host or cells: SK-RC-52 (high hCA-IX), SK-RC-59 (low hCA-IX)
Description: These cell lines have been used in the literature for the screening of scFv Abs for binding to hCA-IX (Xu et al., 2011). Western blot analysis of these cell lines under reducing and non-reducing conditions (FIG. 8) confirmed the expression of hCA-IX in the SK-RC-52 cell line (indicated with a star), whereas no hCA-IX could be detected in the SK-RC-59 cell line. Equal protein quantities were loaded (BCA protein assay) which was confirmed by an actin blot.
Flow cytometry: mAbs were evaluated in a flow cytometry experiment using the SK-RC-59 and SK-RC-52 cell lines. As controls a commercially available mAb (R&D, Clone #303123, Cat #MAB2188) and the M75 mAb (generously supplied by Dr E Oosterwijk, Radboud University Nijmegen, The Netherlands) were used. Experiments were plotted per cell line (FIG. 9) using a double Y-axis (left Y-axis, % live cells, closed squares; right Y-axis, mean fluorescence intensity of the live population, closed circles; X-axis, experimental groups).

[5] = target: T2, rhCA-IX ECD (Homo sapiens, UniProt Q16790); assay: Western blot of non-purified mAbs on purified CA-IX ECD antigen; type: binding; details: undiluted CM; non-reducing and reducing conditions
Excerpt: Anti-hCA-IX mAb 10F2 is shown as a positive control.

[6] = target: rhCA-IX ECD monomer or dimer (Homo sapiens, UniProt Q16790)
[7] = target: rmCA-IX (Mus musculus, UniProt Q8VHB5); assay: Cross-reactivity determination by SPR; type: binding, murine
rmCA-IX, sequence (Q8VHB5 32-437): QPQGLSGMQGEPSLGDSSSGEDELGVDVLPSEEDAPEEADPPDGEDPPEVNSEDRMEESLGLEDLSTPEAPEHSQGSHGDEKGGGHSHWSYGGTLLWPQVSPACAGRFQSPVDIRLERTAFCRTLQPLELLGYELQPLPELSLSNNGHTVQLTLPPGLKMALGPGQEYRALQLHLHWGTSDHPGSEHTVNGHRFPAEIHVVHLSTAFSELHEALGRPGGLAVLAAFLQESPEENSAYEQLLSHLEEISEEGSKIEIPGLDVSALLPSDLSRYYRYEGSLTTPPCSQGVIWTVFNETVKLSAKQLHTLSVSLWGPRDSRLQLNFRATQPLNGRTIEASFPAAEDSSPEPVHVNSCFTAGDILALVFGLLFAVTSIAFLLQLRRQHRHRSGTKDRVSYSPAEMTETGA
Excerpt: as §1

[8] = test system: SK-RC-52 cells; assay: Internalization of pHAb dye labeled mAbs; type: cell-based, human; details: antibody-pHAb dye conjugates, 37° C., 24 h
Excerpt: In addition, we also evaluated the internalization potential of these mAbs with the thought of using these enzyme-inhibiting mAbs to bring a toxic pay-load into cancer cells. For this, both mAbs, in addition to a negative control IgG, were labeled with a pH sensitive reactive dye (pHAb; Promega). Upon receptor-mediated internalization, these antibody-pHAb Dye conjugates traffick to the endosome and lysosomal vesicles where pH is acidic, causing the pHAb dye to fluoresce. CA-IX expressing SK-RC-52 expressing cells were incubated with these antibody-pHAb dye conjugates (10 μg/mL) and incubated at 37° C. (5% CO2, humidified environment) for 24 h (FIG. 18A) or coated with various concentrations of the conjugates for 30 min at 4° C., washed, and then transferred to 37° C. (5% CO2, humidified environment) for 24 h (FIG. 18B).

[9] = Cell viability; type: cell-based
[10] = target: T2, rhCA-IX ECD; type: biochemical
Excerpt: To determine whether these mAbs can inhibit the enzyme activity of the rhCA-IX ECD protein, we used an activity assay in which 4-Nitrophenyl acetate (4-NPA) is used as a substrate. […]

[11] = test system: hCA-IX ECD fragments; assay: Epitope mapping by Yeast Surface Display (whole yeast cell ELISA); type: binding, human; set-up: key: −: no binding; +: binding
Description: Yeast Surface Display (YSD; developed by the Wittrup lab) is used for presenting properly folded (ensured by the “quality-control” processes of the secretory pathway of the yeast) antigen fragments on the yeast cell surface through covalent linkage (FIG. 15A). […] The epitope mapping of the mAbs was performed using a whole yeast cell ELISA protocol. […] These experiments were performed on native and denatured yeast cells, where in both cases binding of each mAb was normalized to the anti-MYC signal. The ratio of each normalized anti-CA-IX mAb signal of native versus denatured hCA-IX peptide is thus indicative of the conformational nature of the mAb binding epitope. In the native hCA-IX experiments the commercial M75 mAb was used as a positive control; the epitope of this mAb is known (Zavada et al., 2000) and is located in hCA-IX's PG domain.

[12] = Differential Scanning Calorimetry (DSC) thermostability; type: physicochemical; details: DSC 25° C. to 100° C., scan rate 90° C./hour; versus Cetuximab
Description: (scan rate 90° C./hour). The therapeutic anti-EGFR Ab Cetuximab, which has been proven to be a very stable under these conditions, was used as control.

[13] = target: rhCA-IX ECD Monomer (Homo sapiens, UniProt Q16790)
Description: (§2) SPR experiments were carried out by capturing the CA-IX mAbs from the CM with an anti-mouse Fc antibody immobilized on the chip surface, after which rhCA-IX EDC mixture, or rhCA-IX EDC monomer or dimer were flowed over the mAb surface.

[14] = target: rhCA-IX ECD Dimer (Homo sapiens, UniProt Q16790)
Description: as §2

[15] = target: T2, rhCA-IX ECD; assay: Reverse Phase Protein Array (RPPA); type: binding
[16] = recombinant mAbs, rhCA-IX ECD monomer
[17] = hybridoma-derived mAb, 1 μM rhCA-IX ECD dimer, mAb:rhCA-IX ECD 4:1
[18] = hybridoma-derived mAb, rhCA-IX ECD dimer

B1: 9B6: mouse IgG2b monoclonal antibody inhibiting hCA-IX catalytic activity; SEQ ID NO.14 and 18; hybridoma-derived and recombinant (SEQ ID NO. 24 and 25) (antibody, V domains shown)
VL: DIVLTQSPSSLAVSLGQRATISCKASQSVDYDGNSYMNWFQQKPGQPPKLLIYEASSLESGIPARISGSGSGTDFTLNIHPVEEEDAATYYCQQSYEGPYTFGGGTKLEIK
VH: QVQLQQPGAELVKPGASVKLSCKASGYIFTTKWINWVKQRPGQGLEWIGNIYPGSSNTYYNEKFKNKATLTVDKSSNTAHLQLSSLTSEDSAVYYCARGIANWGQGTPVTVSA
In the case of B1, the “SPR binding (cross-reactivity)” value [1] is reported as “no interaction was detected”, the “SPR binding (cross-reactivity)” value [2] is reported as “no interaction was detected” and the “SPR binding (cross-reactivity)” value [3] is reported as “no interaction was detected”. For the same molecule, the “binding to cell surface hCA-IX by flow cytometry” value [4] was “virtually no binding was detected”, the “Western blot binding to rhCA-IX ECD” value [5] was “do not detect rhCA-IX ECD; also recorded: failed to bind” and the “competition between 4A2 and 9B6 for binding” value ([6]; hybridoma-derived mAbs, rhCA-IX ECD monomer or dimer) was “do not compete”. The “competition between 4A2 and 9B6 for binding” value [6, 16] was “do not compete for binding to hCA-IX”, the “competition with cG250 for binding to hCA-IX” value [6, 16] was “neither the 9B6 nor the 4A2 mAb competes with cG250” and the “SPR binding (cross-reactivity)” value [7] was “no interaction was detected”. The internalization [8] was “internalize in a CA-IX specific manner”, the “reduction of cell viability” value [9] was “active in reducing cell viability” and the “% rhCA-IX ECD Inhibition” value [10] was 42.59%. The “% rhCA-IX ECD Activity” value [10, 17] was 59.25%, the “% rhCA-IX ECD Inhibition” value [10, 17] was 40% and 40.75% and the Comments ([10]; hybridoma-derived mAb, mAb:rhCA-IX ECD 4:1) was “Inhibition”. For the same molecule, the “rhCA-IX ECD enzyme activity inhibition” value ([10]; recombinant mAbs and Fabs, 0.5 μM each, rhCA-IX ECD 0.5 μM dimer, 4-NPA) was 40% and 28%, the Data1 ([10]; replicate 1 of % rhCA-IX ECD activity, hybridoma-derived mAb, mAb:rhCA-IX ECD 4:1) was 59.25 and the Data2 ([10]; replicate 2 of % rhCA-IX ECD activity, hybridoma-derived mAb, mAb:rhCA-IX ECD 4:1) was 55.57. For the same molecule, the “Anti-CA-IX Ab binding intensity (normalized on CA-IX_MYC expression on cells)” value ([11]; Denatured CA-IX protein, EBY100, No-plasmid, Strain Ctrl, Neg Ctrl (PNL6 series)) was “−”, the “Anti-CA-IX Ab binding intensity (normalized on CA-IX_MYC expression on cells)” value ([11]; Denatured CA-IX protein, EBY100, No-plasmid, Strain Ctrl, Neg Ctrl (PNL200 series)) was “−” and the “Anti-CA-IX Ab binding intensity (normalized on CA-IX_MYC expression on cells)” value ([11]; Denatured CA-IX protein, clone 1A, PNL6, Aga2-HA-CA9-MYC, fragment 1, aa 52-111, PG) was “−”. The “Anti-CA-IX Ab binding intensity (normalized on CA-IX_MYC expression on cells)” value ([11]; Denatured CA-IX protein, clone 2B, PNL6, Aga2-HA-CA9-MYC, fragment 2, aa 38-136, +PG+) was “−”, the “Anti-CA-IX Ab binding intensity (normalized on CA-IX_MYC expression on cells)” value ([11]; Denatured CA-IX protein, clone 3A, PNL6, Aga2-HA-CA9-MYC, fragment 3, aa 1-136, SP+PG+) was “−” and the “Anti-CA-IX Ab binding intensity (normalized on CA-IX_MYC expression on cells)” value ([11]; Denatured CA-IX protein, clone 11B, PNL6, Aga2-HA-X-MYC, Plasmid Ctrl, Neg Ctrl) was “−”. For the same molecule, the “Anti-CA-IX Ab binding intensity (normalized on CA-IX_MYC expression on cells)” value ([11]; Denatured CA-IX protein, clone 12B, PNL200, CA9-Aga2-MYC, fragment 1, aa 52-111, PG) was “−”, the “Anti-CA-IX Ab binding intensity (normalized on CA-IX_MYC expression on cells)” value ([11]; Denatured CA-IX protein, clone 13A, PNL200, CA9-Aga2-MYC, fragment 2, aa 38-136, +PG+) was “−” and the “Anti-CA-IX Ab binding intensity (normalized on CA-IX_MYC expression on cells)” value ([11]; Denatured CA-IX protein, clone 14A, PNL200, CA9-Aga2-MYC, fragment 3, aa 1-136, SP+PG+) was “−”. The “Anti-CA-IX Ab binding intensity (normalized on CA-IX_MYC expression on cells)” value ([11]; Denatured CA-IX protein, clone 22A, PNL200, X-Aga2-MYC, Plasmid Ctrl, Neg Ctrl) was “−”, the “Anti-CA-IX Ab binding intensity (normalized on CA-IX_MYC expression on cells)” value ([11]; Native CA-IX protein, EBY100, No-plasmid, Strain Ctrl, Neg Ctrl (PNL6 series)) was “−” and the “Anti-CA-IX Ab binding intensity (normalized on CA-IX_MYC expression on cells)” value ([11]; Native CA-IX protein, EBY100, No-plasmid, Strain Ctrl, Neg Ctrl (PNL200 series)) was “−”. The “Anti-CA-IX Ab binding intensity (normalized on CA-IX_MYC expression on cells)” value ([11]; Native CA-IX protein, clone 1A, PNL6, Aga2-HA-CA9-MYC, fragment 1, aa 52-111, PG) was “−”, the “Anti-CA-IX Ab binding intensity (normalized on CA-IX_MYC expression on cells)” value ([11]; Native CA-IX protein, clone 2B, PNL6, Aga2-HA-CA9-MYC, fragment 2, aa 38-136, +PG+) was “−” and the “Anti-CA-IX Ab binding intensity (normalized on CA-IX_MYC expression on cells)” value ([11]; Native CA-IX protein, clone 3A, PNL6, Aga2-HA-CA9-MYC, fragment 3, aa 1-136, SP+PG+) was “−”. For the same molecule, the “Anti-CA-IX Ab binding intensity (normalized on CA-IX_MYC expression on cells)” value ([11]; Native CA-IX protein, clone 11B, PNL6, Aga2-HA-X-MYC, Plasmid Ctrl, Neg Ctrl) was “−”, the “Anti-CA-IX Ab binding intensity (normalized on CA-IX_MYC expression on cells)” value ([11]; Native CA-IX protein, clone 12B, PNL200, CA9-Aga2-MYC, fragment 1, aa 52-111, PG) was “−” and the “Anti-CA-IX Ab binding intensity (normalized on CA-IX_MYC expression on cells)” value ([11]; Native CA-IX protein, clone 13A, PNL200, CA9-Aga2-MYC, fragment 2, aa 38-136, +PG+) was “−”. The “Anti-CA-IX Ab binding intensity (normalized on CA-IX_MYC expression on cells)” value ([11]; Native CA-IX protein, clone 14A, PNL200, CA9-Aga2-MYC, fragment 3, aa 1-136, SP+PG+) was “−”, the “Anti-CA-IX Ab binding intensity (normalized on CA-IX_MYC expression on cells)” value ([11]; Native CA-IX protein, clone 22A, PNL200, X-Aga2-MYC, Plasmid Ctrl, Neg Ctrl) was “−” and the thermostability [12] was “slightly less stable than Cetuximab”. The off rate ([13]; Hybridoma-derived) was “slow”, the off rate ([13]; Recombinantly expressed, mIgG2b) was “slow” and the off rate ([14]; Hybridoma-derived, rhCA-IX ECD dimer) was “extremely slow”. The ka [14, 18] was 1.33E+05, the kd [14, 18] was 4.17E−18 and the binding kinetics ([14]; recombinant and hybridoma-derived mAb, rhCA-IX ECD dimer (FIG. 12)) was “poor”. The “Antigen in protein mixture Denatured (D)” value [15] was 1.74, the “Antigen in protein mixture Native (C)” value [15] was 5.79 and the mAb binding specificity [15] was “rhCA-IX”. For the same molecule, the “preference for native or denatured rhCA-IX ECD” value [15] was “slightly increased preference for the denatured protein”, the “Ratio (A)/(B) (Possibly epitope related)” value ([15]; native/denatured purified antigen) was 0.68 and the “Purified Antigen Denatured (B)” value ([15]; non-purified hybridoma mAb) was 21.55. For the same molecule, the “Purified Antigen Native (A)” value ([15]; non-purified hybridoma mAb) was 14.75.
